# Measured values as given in article PMC5727538, “Comprehensive analysis of the catalytic and structural properties of a mu-class glutathione s-transferase from Fasciola gigantica” (Scientific Reports, 2017).
# Molecular target: the molecule itself
# Assay: SEC; Superdex 200 10/300 GL on AKTA-FPLC, 20 mM phosphate buffer pH 7.5, 150 mM NaCl, 0.3 mL/min; calibrated with molecular weight markers; elution at 15.4 mL, about 50 kDa
protein,measurement,value
mu-class glutathione S-transferase from Fasciola gigantica (FgGST1) (enzyme) MPATLGYWKLRGLAQPIRLLLEFVGEKYEEQIYERDDGEKWFSKKFELGLDLPNLPYYIDDKCKLTQSLAILRYIADKHGMIGSTPEERARVSMIEGAAVDLRQGLSRISYDPKFEQLKEGYLKDLPTTMKMWSDFLGKNLYLRGTSVSHVDFMVYEALDAIRYLEPHCLDHFPNLQQFMSRIEALPSIKAYMESNRFIKWPLNGWHAQFGGGDAPPSHEKK,stoichiometry N,2
